Measured values published in the supplement of paper PMC12042874.
± gives the uncertainty stated by the source.

Assay: amyloid nucleation score (Sup35N fusion, yeast selection) (log enrichment); library NNK1; higher = more nucleation; inactive = no reads after selection
Method in brief: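 Sup35N was fused to peptides of 20 random codons and expressed in psi-negative yeast, which were induced with 100 μM copper sulfate for 24 hours and then grown on medium lacking adenine and uracil for 7 days at 30°C. Plasmid inserts from input and output were sequenced on Illumina. The nucleation score is the DiMSum log enrichment of output over input reads, centred on the mode score of non-aggregating sequences. Sequences with under 100 input reads were left out, and random libraries had three technical output replicates.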

Compared with SCSVSNGVFCNHGRGCGFRL, HEFNR is lower in amyloid nucleation score: 2.12 ± 0.18 for the first, -0.936 ± 1.6 for the second.

First: ITMGTGCSAGEWFMVYMMC
Second: LFHANQKHAGWSRASTLEAC
The amyloid nucleation score of the first is higher: 2.15 ± 0.2 for the first, -0.954 ± 0.54 for the second.

Going from NHFLRSNNKYLSWGKTYIAP to SKLCVCGTASLLHYTVTERV, the amyloid nucleation score rises from -0.846 ± 2.4 to 5.29 ± 0.11.

TYRKYLRVRTLDERHGSVYE and ALETFNGQVMSPSSRLRIDR are within error of each other in amyloid nucleation score: 0.147 ± 0.35 for the first, -1.07 ± 0.88 for the second.

CVARIDCEWIKPLSLHCSCT and NRVLLSEAKSQFIG are within error of each other in amyloid nucleation score: -0.499 ± 1.3 for the first, 0.366 ± 0.59 for the second.

TPFRDKHGGVWVV and HYSFFE are within error of each other in amyloid nucleation score: 0.505 ± 0.56 for the first, -0.806 ± 0.8 for the second.

YCHCRFFDNLGCECLLR and LLIALFSW are within error of each other in amyloid nucleation score: -0.368 ± 1.9 for the first, 1.34 ± 0.25 for the second.

Going from WVLNG to IRLNSFTIESKRMYGRDSDV, the amyloid nucleation score rises from -0.514 ± 0.34 to 3.38 ± 0.12.

RRRYGRWMLCCCVVWV and FLFRFQKCLFNCFVLGLVSR are within error of each other in amyloid nucleation score: -0.147 ± 0.37 for the first, -0.206 ± 0.53 for the second.

Compared with LSDWWKTSMFGYPVYSVVAR, TGLPFYEEIMRTPHM is lower in amyloid nucleation score: 0.62 ± 0.36 for the first, -0.766 ± 0.5 for the second.

RVIWEGNAVQTSAWGSADPK and FGSDPISCGVWYMCVRGWYG are within error of each other in amyloid nucleation score: -0.264 ± 0.64 for the first, 0.108 ± 0.3 for the second.

LAIVGQACRGVVEHARVSGH and NTRAPFLKHLNYFAYTTFII are within error of each other in amyloid nucleation score: 0.136 ± 0.41 for the first, 0.123 ± 0.22 for the second.

SYLQGELTDDSMTSFFKGM and RNDHSRDHPFLDISWVCLGQ are within error of each other in amyloid nucleation score: -1.3 ± 1.4 for the first, 0.58 ± 1.2 for the second.

VFMSLESFYKYNYTHFFFRK and ESPHYFTLTCV are within error of each other in amyloid nucleation score: 0.114 ± 0.39 for the first, -0.036 ± 0.74 for the second.

Going from GILFDLICIDLCFIGVLLKM to GSTRVRTCGRKLMCALS, the amyloid nucleation score rises from -0.406 ± 0.44 to 0.835 ± 0.24.

ILRSGNVCYHNTVRWVLSYR and VRAPRSVWRSFAAA are within error of each other in amyloid nucleation score: 0.225 ± 0.21 for the first, -0.107 ± 0.59 for the second.

LIRMHTICVWDSSVIMSIMA and SQSRRVSGQQDGPQMYSNGP are within error of each other in amyloid nucleation score: -0.354 ± 0.44 for the first, -0.232 ± 0.36 for the second.

Going from DYPCRRGDLRRG to TAVIKLSCLSLFMNSIMLVY, the amyloid nucleation score rises from 0.642 ± 0.95 to 2.59 ± 0.12.

VQRELFLVLHHTSVGRGSAP and SYSYRLQPFIAMLLGSFL are within error of each other in amyloid nucleation score: 1.08 ± 0.24 for the first, -1.04 ± 2.7 for the second.

Going from WIILVHGGGKRLSVNIHLLC to YLKINTTYGCDI, the amyloid nucleation score rises from -0.713 ± 0.32 to 1.93 ± 0.34.

IYSNKRTNMLMCMYNSVRGH and GRCDWTVLDMVDMIGKVESQ are within error of each other in amyloid nucleation score: 0.243 ± 0.35 for the first, 0.273 ± 0.25 for the second.

RGGNLSRAFNYVRYIITHKN and SLPAEYSRRPKWVGASTVDW are within error of each other in amyloid nucleation score: 0.145 ± 0.46 for the first, 0.527 ± 0.55 for the second.

First: ASKKNIF
Second: CSNRWYVNMFVHWIFVHLGS
The amyloid nucleation score of the first is lower: -0.304 ± 0.79 for the first, 1.47 ± 0.53 for the second.

First: FQHLNMVTAFSDSRGIPYML
Second: YTSDKGKLYCGLMMG
The amyloid nucleation score of the first is higher: 1.05 ± 0.38 for the first, -0.045 ± 0.59 for the second.

EPKVSSEQKVFDSCYT and DQVISNCRLNMGV are within error of each other in amyloid nucleation score: 0.417 ± 0.61 for the first, -0.369 ± 0.56 for the second.

YVSYDQTNSAAYYVRVRLRF and ESSYLMNKCSSAIQDWDWGR are within error of each other in amyloid nucleation score: 0.947 ± 0.73 for the first, 0.321 ± 0.4 for the second.

SFVNTNHRMRRCYTTENNPS and GKLTYLPRVKNLHLHFSFEN are within error of each other in amyloid nucleation score: -0.796 ± 0.68 for the first, -0.169 ± 0.51 for the second.

VAFNICSENRLVNFR and RLNNLWKFDEVLLGSSNRTR are within error of each other in amyloid nucleation score: -0.577 ± 0.4 for the first, -1.24 ± 0.44 for the second.

KSERERRVLMQRSDECVKSF and TVYYDSIRSMYGYGGGVASR are within error of each other in amyloid nucleation score: -0.297 ± 0.5 for the first, -0.344 ± 0.49 for the second.

ITGGVVWEHS and WPASLSSCIS are within error of each other in amyloid nucleation score: 0.358 ± 1 for the first, -0.047 ± 0.66 for the second.

CLVVVISS and CNFLLATWRRLKYTSQYLKS are within error of each other in amyloid nucleation score: -0.369 ± 0.57 for the first, -0.073 ± 0.69 for the second.

CGFSDNGTCKND and RGITNCVQCPVIPWFLRYYG are within error of each other in amyloid nucleation score: -0.059 ± 0.28 for the first, -0.401 ± 0.31 for the second.

RYSSLRWTISFDNLVVSFRP and PVGYYILGMNGRVMNWSQRQ are within error of each other in amyloid nucleation score: 0.724 ± 0.68 for the first, 1.73 ± 0.52 for the second.

LYTIRTYPSLLKCDSPLN and TATDPLLSYGAHL are within error of each other in amyloid nucleation score: -1.01 ± 0.78 for the first, -0.354 ± 0.31 for the second.

FISNVWPYGESRFEESNPCL and GSGSDGQVGWFVANRDERRE are within error of each other in amyloid nucleation score: 0.094 ± 0.52 for the first, 0.495 ± 0.38 for the second.

SKETAFGLSL and FRSPN are within error of each other in amyloid nucleation score: -0.368 ± 0.54 for the first, -0.285 ± 0.58 for the second.

DLKFHLLIWVCRIGSDKNVK and TTVANTSAVFCEAVCKGMQK are within error of each other in amyloid nucleation score: 0.071 ± 1.2 for the first, 0.078 ± 0.99 for the second.

IGGCLETCCSLGDKLGRRKR and PDSARSECAGRVNLFVFRAR are within error of each other in amyloid nucleation score: 1.07 ± 0.66 for the first, 0.559 ± 0.32 for the second.

EIPLRAGWPPWCGSDICL and YSDWHI are within error of each other in amyloid nucleation score: 0.639 ± 0.55 for the first, -0.511 ± 0.91 for the second.

First: LMRYALSIPRRAYVVRRLVM
Second: MLVLRMYYTRNS
The amyloid nucleation score of the first is lower: 0.444 ± 1.2 for the first, 2.24 ± 0.23 for the second.

QGAGILTYPRALRHWVVRRM and RSVWDRWFDPIMTFEQESTW are within error of each other in amyloid nucleation score: 0.12 ± 0.51 for the first, -0.812 ± 1.7 for the second.

First: SSRNRV
Second: SNDKHKIRIYAGYFFVQRGC
The amyloid nucleation score of the first is lower: -1.07 ± 0.59 for the first, 0.312 ± 0.37 for the second.

For IYDTGVAFDCSLM, the amyloid nucleation score was “inactive”.
With WNVDVGSLC the amyloid nucleation score was “inactive”.
With LHTAETGRLHNAYVILVVYC the amyloid nucleation score was “inactive”.
For LPRNYTLLMPAVYIYVLVSW, the amyloid nucleation score was “inactive”.
